Laboratory results taken from publication PMC5982138, “Disruption of the GDP-mannose synthesis pathway in Streptomyces coelicolor results in antibiotic hyper-susceptible phenotypes” (Microbiology, 2018).

Substrate: O=P(O)(O)O[C@H]1O[C@H](CO)[C@@H](O)[C@H](O)[C@@H]1O
Assay: purified protein
Type: biochemical, Streptomyces coelicolor
Conditions: GTP as co-substrate; cooperative (Hill fit)

B1: SCO4238 (Streptomyces coelicolor A3(2)) (protein)
chain: MTDPNAASRRPVQAVVLAGGQGSRLRPYTDDRPKPMVEIPGTGTPIIGHQLAWLAEEGVTDVVVSCGHLAEVLQKWLESADLPLSVTTVVETEPLGRGGGLRYAAAHLPHPDRSWYATNGDIWTRFSLRDMADFHAERDAVATLALARPRLPWGAVQTDGFGHITDFIEAPPSTFEINAGVYVFSPEFAAMLPERGDHERTTFPRLAREHRLAGFPIPQGSYWRAIDTAKDLTEAARELAALSGR
  Km: 180 ± 30 µM
